Assay [1] has as its target T1, Recombinant human IL-1RAP Fc fusion protein (Acrobiosystems, catalog no. ILP-H5256) (human, UniProt Q9NPH3 21-359, limits assumed).
T1 construct: Bought; not shown: Fc part of the bought fusion protein
T1 sequence: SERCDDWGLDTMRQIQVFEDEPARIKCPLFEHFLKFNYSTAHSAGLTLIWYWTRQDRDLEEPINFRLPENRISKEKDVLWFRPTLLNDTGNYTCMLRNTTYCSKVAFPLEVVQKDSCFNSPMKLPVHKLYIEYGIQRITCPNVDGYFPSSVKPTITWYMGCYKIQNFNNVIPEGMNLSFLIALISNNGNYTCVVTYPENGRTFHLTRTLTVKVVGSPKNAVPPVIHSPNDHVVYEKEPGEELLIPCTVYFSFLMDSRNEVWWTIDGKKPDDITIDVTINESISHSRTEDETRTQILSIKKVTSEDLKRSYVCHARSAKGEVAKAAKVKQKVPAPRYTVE
The assay can be described thus: SPR, human IL-1RAP-Fc captured, Fab as analyte, 1:1 fit. How it is done: (§1) Surface plasmon resonance (SPR) was used to measure the binding affinities of the Fab fragments for human, cynomolgus monkey and/or mouse IL-1RAP. Affinities were measured on a BIACORE™ T200 instrument (BIACORE™, GE […]®) at 25° C. and analyzed with the BIACORE™ T200 Evaluation Software (v3.1). Measurements were performed on Series S CM5 sensor chips (BIACORE™ T200, BIACORE™, GE […]®, catalog no. BR100530) coupled with anti-human IgG Fc (BIACORE™, GE […]®, catalog no. BR100839) using a commercial amine coupling kit (BIACORE™, GE […]®, catalog no. BR100050) or on Series S BiotinCAPture chips (BIACORE™, GE […]®, catalog no. 28920234). SPR measurements were performed with commercially available recombinant human IL-1RAP Fc fusion protein (Acrobiosystems, catalog no. ILP-H5256) and recombinant mouse IL-1RAP Fc fusion protein (Sino Biologicals, catalog no. 52657-M02H) or with biotinylated recombinant cynomolgus monkey IL-1RAP-avi-his protein produced in-house (SEQ ID NO. 2).
(§2) The affinities to human, cynomolgus monkey and mouse IL-1RAP were assessed by immobilizing IL-1RAP and using Fab fragments as analyte. Around 100 RU of human or mouse IL-1RAP Fc fusion protein were captured on fc2 of a Series S CM5 sensor chip coupled with anti-human IgG Fc and around 150 RU of biotinylated cynomolgus monkey IL-1RAP protein were captured on fc2 of a Series S BiotinCAPture chip. Fab fragments were injected in single cycle kinetic at different concentrations ranging from 7.8 to 500 nM, in HBS-EP+ buffer (BIACORE™, GE […]®, catalog no. BR100669) at a flow rate of 30 μl/min for 3 min on fc1 and fc2 (fc1 being used as reference). Dissociation was monitored for 5 min. After each cycle, the surface was regenerated with 60 μl of regeneration solution provided with anti-human IgG Fc capture kit (BIACORE™, GE […]®, catalog no. BR100839) or BiotinCAPture kit (BIACORE™, GE […]®, catalog no. 28920234) respectively. Experimental data were processed using the 1:1 Langmuir kinetic fitting model. Measurements included zero-concentration samples for referencing. Chi², U- and residual values were used to evaluate the quality of a fit between the experimental data and individual binding models.

Assay [2] addresses T2, Recombinant mouse IL-1RAP Fc fusion protein (Sino Biologicals, catalog no. 52657-M02H) (mouse, UniProt Q61730 21-350).
T2 construct: Bought; not shown: Fc part of the bought fusion protein
T2 sequence: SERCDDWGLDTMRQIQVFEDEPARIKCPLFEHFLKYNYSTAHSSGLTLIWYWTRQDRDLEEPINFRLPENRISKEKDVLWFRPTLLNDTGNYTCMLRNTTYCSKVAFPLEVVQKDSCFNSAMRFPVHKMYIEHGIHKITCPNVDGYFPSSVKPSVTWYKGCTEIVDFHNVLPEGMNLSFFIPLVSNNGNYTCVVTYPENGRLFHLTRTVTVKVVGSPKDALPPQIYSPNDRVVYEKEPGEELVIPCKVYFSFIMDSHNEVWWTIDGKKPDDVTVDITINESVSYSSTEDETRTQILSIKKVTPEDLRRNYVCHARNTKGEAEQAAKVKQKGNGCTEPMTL
The assay can be described thus: SPR, mouse IL-1RAP-Fc captured, Fab as analyte, 1:1 fit. The protocol: as §1
(§3) The affinities to human, cynomolgus monkey and mouse IL-1RAP were assessed by immobilizing IL-1RAP and using Fab fragments as analyte. […] Dissociation was monitored for 5 min. […]

The target in assay [3] is T3, Recombinant cynomolgus monkey IL-1RAP-ECD(S21-E359)-avi-his protein (cynomolgus monkey, UniProt P59822 21-359 (rhesus entry)).
T3 construct: also called cyno IL-1RAP-ECD-Avi-His; recombinant cynomolgus monkey IL-1RAP-avi-his protein
T3 sequence: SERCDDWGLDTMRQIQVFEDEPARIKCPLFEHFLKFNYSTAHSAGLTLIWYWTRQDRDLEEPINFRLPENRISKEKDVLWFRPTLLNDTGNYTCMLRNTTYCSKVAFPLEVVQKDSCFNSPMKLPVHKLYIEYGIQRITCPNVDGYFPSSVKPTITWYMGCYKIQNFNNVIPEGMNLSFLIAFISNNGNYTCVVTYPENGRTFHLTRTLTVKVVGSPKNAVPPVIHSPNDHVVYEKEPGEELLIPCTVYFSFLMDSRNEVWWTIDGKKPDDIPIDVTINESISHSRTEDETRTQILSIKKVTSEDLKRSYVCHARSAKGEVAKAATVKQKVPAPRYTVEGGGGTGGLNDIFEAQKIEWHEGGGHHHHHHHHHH
Kind of assay: SPR, biotinylated cyno IL-1RAP-avi-his captured, Fab as analyte, 1:1 fit. How it is done: as §1, §2

The target of assay [4] is T3, Recombinant cynomolgus monkey …. Kind of assay: SPR, Fab as analyte. How it is done:
as §1, §3

Assay [5] has the same target. Kind of assay: SPR, biotinylated cyno IL-1RAP-avi-his captured, Fab as analyte. How it is done: as §1, §3
The target in assay [6] is T2, Recombinant mouse IL-1RAP Fc fusion …. Kind of assay: SPR, mouse IL-1RAP-Fc captured, Fab as analyte. The protocol: as §1, §2

B1: Anti-IL-1RAP-UCP02-C3-Fab (Fab, V domains shown)
VH: EVQLLESGGGLVQPGGSLRLSCAASGFTFRDYAMGWVRQAPGKGLEWVSAISYDGEGTLYADSVKGRFTISRDNSKNTLYLQMNSLRAEDTAVYYCARFRYYTAFDYWGQGTLVTVSS
VL: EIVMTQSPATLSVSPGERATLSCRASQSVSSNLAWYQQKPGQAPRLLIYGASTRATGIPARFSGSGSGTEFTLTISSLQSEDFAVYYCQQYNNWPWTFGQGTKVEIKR
notes: also called anti-IL-1RAP-C3; anti-IL-1RAP-C3 Fab
In the case of B1, the figures for the dissociation constant (Kd) in assay [1], in assay [2] and in assay [3] were 2.8 nM, 0.63 nM and 110 nM, respectively. Besides, the “fold lower affinity than to human IL-1RAP” value in assay [4] is around 40 fold.

B2: Anti-IL-1RAP-UCP04-C1-Fab (Fab, V domains shown)
VH: EVQLLESGGGLVQPGGSLRLSCAASGFTFSAYTMSWVRQAPGKGLEWVSAISYEGDGTLYADSVKGRFTISRDNSKNTLYLQMNSLRAEDTAVYYCARSLYWSGFDYWGQGTLVTVSS
VL: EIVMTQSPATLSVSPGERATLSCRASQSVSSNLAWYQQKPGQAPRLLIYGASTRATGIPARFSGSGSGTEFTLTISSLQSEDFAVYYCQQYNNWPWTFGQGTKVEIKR
Regarding B2, the dissociation constant (Kd) in assay [1] is 16 nM; in assay [2], 3.54 nM. Besides, in assay [5], the binding result is recorded as “no binding (tested: 7.8 to 500 nM Fab)”.

B3: Anti-IL-1RAP-UCP02-B5-Fab (Fab, V domains shown)
VH: QVQLVQSGAEVKKPGSSVKVSCKASGGYFSAYIISWVRQAPGQGLEWMGGIVPQYGYATYAQKFQGRVTITADESTSTAYMELSSLRSEDTAVYYCARGRSTTYYGFAYWGQGTLVTVSS
VL: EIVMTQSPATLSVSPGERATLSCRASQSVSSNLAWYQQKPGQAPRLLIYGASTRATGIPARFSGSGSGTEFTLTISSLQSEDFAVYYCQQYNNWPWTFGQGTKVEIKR
In the case of B3, the dissociation constant (Kd) in assay [1] is 311 nM. In addition, the binding result in assay [5] and in assay [6] was “no binding (tested: 7.8 to 500 nM Fab)” each time.

The values above are taken from patent US20240327530A1 (ICHNOS SCIENCES, published 2024).
